Data published in the Immune Epitope Database (IEDB).

Key:
HLA-A*02:12 = experiment: IEDB peptide-MHC binding, purified MHC/direct/fluorescence; filed as Kd, often an IC50 or EC50 that approximates it; ≥ and ≤ were set here for values at or beyond the usual limits of such assays
HLA-A*03:01 [1] = experiment: as above
HLA-A*02:16 = experiment: as above
HLA-A*02:03 = experiment: as above
HLA-A*68:02 = experiment: as above
HLA-A*11:01 = experiment: as above; details: source organism: Rickettsia sibirica 246
HLA-A*02:19 = experiment: as above
HLA-A*02:11 = experiment: as above
HLA-A*23:01 = experiment: as above
HLA-A*24:03 = experiment: as above
HLA-B*39:01 = experiment: IEDB peptide-MHC binding, purified MHC/competitive/fluorescence; filed as Kd, often an IC50 or EC50 that approximates it; ≥ and ≤ were set here for values at or beyond the usual limits of such assays
HLA-B*27:03 = experiment: as above
HLA-A*02:01 [2] = experiment: as above
HLA-B*15:17 = experiment: as above
HLA-A*69:01 = experiment: as above
HLA-A*26:01 = experiment: as above
HLA-B*51:01 = experiment: as above
HLA-B*57:01 = experiment: as above
HLA-B*46:01 = experiment: as above
HLA-B*18:01 = experiment: as above
HLA-A*02:01 [3] = experiment: IEDB peptide-MHC binding, purified MHC/competitive/fluorescence; ≥ and ≤ were set here for values at or beyond the usual limits of such assays; details: source organism: Zaire ebolavirus
HLA-B*08:01 = experiment: as above
HLA-A*01:01 [4] = experiment: IEDB peptide-MHC binding, purified MHC/direct/fluorescence; filed as Kd, often an IC50 or EC50 that approximates it; ≥ and ≤ were set here for values at or beyond the usual limits of such assays
HLA-B*15:01 [5] = experiment: IEDB peptide-MHC binding, purified MHC/competitive/fluorescence; filed as Kd, often an IC50 or EC50 that approximates it; ≥ and ≤ were set here for values at or beyond the usual limits of such assays
HLA-B*15:01 [6] = experiment: IEDB peptide-MHC binding, purified MHC/competitive/fluorescence; ≥ and ≤ were set here for values at or beyond the usual limits of such assays
HLA-A*24:02 = experiment: as above
HLA-B*07:02 = experiment: as above
HLA-B*15:01 [7] = experiment: IEDB peptide-MHC binding, purified MHC/direct/fluorescence; filed as Kd, often an IC50 or EC50 that approximates it; ≥ and ≤ were set here for values at or beyond the usual limits of such assays; details: source organism: Reston ebolavirus - Reston
HLA-A*29:02 = experiment: as above
HLA-A*03:01 [8] = experiment: IEDB peptide-MHC binding, purified MHC/competitive/fluorescence; filed as Kd, often an IC50 or EC50 that approximates it; ≥ and ≤ were set here for values at or beyond the usual limits of such assays
HLA-A*01:01 [9] = experiment: as above
[10] = source organism: Rickettsia sibirica 246
[11] = source organism: Zaire ebolavirus
[12] = source organism: Influenza A virus H3N2
[13] = source organism: Influenza A virus (A/Memphis/1/1978(H1N1))
[14] = source organism: Vaccinia virus Copenhagen
[15] = source organism: Vaccinia virus
[16] = source organism: Sudan ebolavirus
[17] = source organism: Reston ebolavirus
[18] = source organism: Orthohantavirus andesense
[19] = source organism: Bacillus anthracis str. A0488
[20] = source organism: Escherichia coli
[21] = source organism: Escherichia coli O157:H7 str. Sakai

SVANIDRIK
≥ 20 µM: Kd (HLA-A*02:12; [10]) | Kd (HLA-A*03:01 [1]; [10]) | Kd (HLA-A*02:16; [10]) | Kd (HLA-A*02:03; [10]) | Kd (HLA-A*68:02; [10]) | Kd (HLA-A*02:19; [10]) | Kd (HLA-A*02:11; [10]) | Kd (HLA-A*23:01; [10]) | Kd (HLA-A*24:03; [10]) | Kd (HLA-B*39:01; [10]) | Kd (HLA-B*27:03; [10]) | Kd (HLA-A*02:01 [2]; [10]) | Kd (HLA-B*15:17; [10]) | Kd (HLA-A*69:01; [10]) | Kd (HLA-A*26:01; [10]) | Kd (HLA-B*51:01; [10]) | Kd (HLA-B*57:01; [10]) | Kd (HLA-B*46:01; [10]) | Kd (HLA-B*18:01; [10])
0.006 µM: Kd (HLA-A*11:01)

ERLAKLTEA
≥ 106 µM: IC50 (HLA-B*08:01; [11])
≥ 175 µM: IC50 (HLA-A*02:01 [3])

AVDADDSHF
≥ 20 µM: Kd (HLA-A*02:12; [12]) | Kd (HLA-A*03:01 [1]; [12]) | Kd (HLA-A*02:16; [12]) | Kd (HLA-A*02:03; [12]) | Kd (HLA-A*68:02; [12]) | Kd (HLA-A*02:19; [12]) | Kd (HLA-A*23:01; [12]) | Kd (HLA-A*24:03; [12]) | Kd (HLA-A*01:01 [4]; source organism: Influenza A virus (A/New York/140/1999(H3N2))) | Kd (HLA-B*39:01; [13]) | Kd (HLA-B*15:01 [5]; [13]) | Kd (HLA-B*27:03; [13]) | Kd (HLA-A*02:01 [2]; [13]) | Kd (HLA-B*15:17; [13]) | Kd (HLA-A*69:01; [13]) | Kd (HLA-A*26:01; [13]) | Kd (HLA-B*51:01; [13]) | Kd (HLA-B*57:01; [13]) | Kd (HLA-B*46:01; [13]) | Kd (HLA-B*18:01; [13])

FLLQRWGGT
6.33 µM: IC50 (HLA-B*08:01; [11])
8.24 µM: IC50 (HLA-A*02:01 [3])

YANCSSISI
≥ 175 µM: IC50 (HLA-B*07:02; [14])
24.8 µM: IC50 (HLA-B*15:01 [6]; [14])
≥ 1080 µM: IC50 (HLA-B*08:01; [14])
1.33 µM: IC50 (HLA-A*24:02; [14])

EPPLVRHAC
≥ 521 µM: IC50 (HLA-B*08:01; [15])
≥ 162 µM: IC50 (HLA-B*07:02; [15])

FLRYLLFGI
≥ 193 µM: IC50 (HLA-B*08:01; [15])
16.5 µM: IC50 (HLA-A*24:02; [15])
≥ 1010 µM: IC50 (HLA-B*07:02; [15])

YRNKPSIAT
≥ 130 µM: IC50 (HLA-B*08:01; [15])

GVPPKVVSY
≥ 20 µM: Kd (HLA-A*02:12; [17]) | Kd (HLA-A*03:01 [1]; [17]) | Kd (HLA-A*02:16; [17]) | Kd (HLA-A*02:03; [17]) | Kd (HLA-A*68:02; [17]) | Kd (HLA-A*02:19; [17]) | Kd (HLA-A*02:11; [17]) | Kd (HLA-A*23:01; [17]) | Kd (HLA-A*24:03; [17]) | Kd (HLA-B*39:01; [17]) | Kd (HLA-B*27:03; [17]) | Kd (HLA-A*02:01 [2]; [17]) | Kd (HLA-A*69:01; [17]) | Kd (HLA-A*26:01; [17]) | Kd (HLA-B*51:01; [17]) | Kd (HLA-B*57:01; [17]) | Kd (HLA-B*46:01; [17]) | Kd (HLA-B*18:01; [17])
2.56 µM: Kd (HLA-B*15:01 [7])
57.8 µM: IC50 (HLA-B*15:01 [6]; [16])

FLLIHQGMH
9.52 µM: IC50 (HLA-A*02:01 [3])
≥ 230 µM: IC50 (HLA-B*15:01 [6]; [11]) | IC50 (HLA-B*08:01; [11])

STGKSIKFK
≥ 20 µM: Kd (HLA-A*02:12; [18]) | Kd (HLA-A*02:16; [18]) | Kd (HLA-A*02:03; [18]) | Kd (HLA-A*68:02; [18]) | Kd (HLA-A*02:19; [18]) | Kd (HLA-A*29:02; [18]) | Kd (HLA-A*02:11; [18]) | Kd (HLA-A*24:03; [18]) | Kd (HLA-B*39:01; [18]) | Kd (HLA-B*15:01 [5]; [18]) | Kd (HLA-B*27:03; [18]) | Kd (HLA-A*02:01 [2]; [18]) | Kd (HLA-A*69:01; [18]) | Kd (HLA-A*26:01; [18]) | Kd (HLA-B*51:01; [18]) | Kd (HLA-B*57:01; [18]) | Kd (HLA-B*46:01; [18]) | Kd (HLA-B*18:01; [18])
0.0147 µM: Kd (HLA-A*03:01 [8]; [18])

LLDNSMFTY
0.0038 µM: Kd (HLA-A*01:01 [9]; [19])

LSDAIFDDL
1.85 µM: Kd (HLA-A*01:01 [4]; source organism: Sudan ebolavirus - Maleo (1979))
≥ 20 µM: Kd (HLA-A*02:12; [11]) | Kd (HLA-A*03:01 [1]; [11]) | Kd (HLA-A*02:16; [11]) | Kd (HLA-A*02:03; [11]) | Kd (HLA-A*68:02; [11]) | Kd (HLA-A*02:19; [11]) | Kd (HLA-A*29:02; [11]) | Kd (HLA-A*02:11; [11]) | Kd (HLA-A*23:01; [11]) | Kd (HLA-A*24:03; [11]) | Kd (HLA-B*39:01; [11]) | Kd (HLA-B*15:01 [5]; [11]) | Kd (HLA-B*27:03; [11]) | Kd (HLA-A*02:01 [2]; [11]) | Kd (HLA-B*15:17; [11]) | Kd (HLA-A*69:01; [11]) | Kd (HLA-A*26:01; [11]) | Kd (HLA-B*51:01; [11]) | Kd (HLA-B*57:01; [11]) | Kd (HLA-B*46:01; [11]) | Kd (HLA-B*18:01; [11])

TLDSEDGLY
0.0016 µM: Kd (HLA-A*01:01 [9]; [19])

AAPLMQSLY
≥ 20 µM: Kd (HLA-A*01:01 [9]; [20])
1.33 µM: Kd (HLA-A*26:01; [20])

GSQYVSLAY
4.5 µM: Kd (HLA-A*03:01 [8]; [21])
0.0321 µM: Kd (HLA-A*01:01 [9]; [21])

GFPRCRYVH
1.22 µM: IC50 (HLA-A*24:02; [16])
≥ 82.4 µM: IC50 (HLA-B*07:02; [16])
12.3 µM: IC50 (HLA-B*08:01; [11])
